From the DeepSol protein solubility set

assay: soluble on expression in E. coli; label from the status in PepcDB or PDB records

Sequence | soluble on expression in E. coli
GAMGSWNPKYDTRTLWTTPDTSPNCTIAQDKDSKLTLVLTKCGSQILANVSLIVVAGKYHIINNKTNPKIKSFTIKLLFNKNGVLLDNSNLGKAYWNFRSGNSNVSTAYEKAIGFMPNLVAYPKPSNSKKYARDIVYGTIYLGGKPDQPAVIKTTFNQETGCEYSITFNFSWSKTYENVEFETTSFTFSYIAQE | soluble
MSCFRGDVDFCPECGNILPLPSRLNTITCPRCSFKISVQDFTSQVIKSSVMFNPLDQSNVAVGSAEDAELKGPVIDRKCSRCNKEGMVYHTRQMRSADEGQTVFFTCIHCRFQEKEDS | not soluble
MHRSFAAFSILLVAIPQASSFLFGGGCCGAPAVQSCCGSTSWAYAPPQVIGYERIPLYAKVPMPPPPTYVQPPLVGYVSPQQPVAPQGYQQQPQQQFMGQVEQGVEITPDQINSGYQPQQQMGFQSQQQQFSSIPNSGSSNYGADSSFSGSQPAGLVQSVASSAAFEAAGVAPSARRLRKFKN | not soluble
MSGIPSQGVASGMREAARALLAVLEPEQVRELRAGPDRLDTPELREWTYLPGPRPGLSTEGLDGRQREVVDALLTTAHSAAGAELVRGAIEVERHPRARAGHPGPDRYWVRLLGDPGGDEPWGWRLNGHHLAVHVLVTAAGVRVTPHFVGAEPARTGNGPRPGLRPLGPEEDLARELITSLGGTARASALFAATPPDDILTRADPFADPGLLPEGLRYDRLAPGQQRLLERLVGRYLDRAPEAYARECWSDAVRRGLGSLSFAWAGGLAPGDRHYYCVRAPDFLIEYDNTQDDGNHAHSVWRHVRHDWGTDLLRGHYTEQHFLEHHHHHH | not soluble
ASTLGFKARIHMSHDATDWKINKLLQNGVEVKIYDDNFSNAVAAARVSSQRDPYSYFIDDEGSKLLFAGYATAGERVKKQLSKMQIEVSKEHPLVVYLPAGVGGSPSGVAFGLKLQFADAVIPIFVEPTHMPSVLLGMASGLNHDISVYDIGIDGKTAADGLAVGRPSMIAGKYMKDKLFGIATVSDSDMFAYQGMLKKLENIEVEPSAAVGIRGLIQSKEISEIPDSATHMVWATGGSMVPKNTMHKYEDKAVRIFNTWKS | not soluble
MSLSKEVVYVPTGSIAKERSIFFDLKHMDKLTDLVNSGSFSADSKIKSEASGNIRMDVILSADNKFAAVQLFQFVPYTYQPVTAVHYFTNDAAAAVAAFLTKSQLNEGHHHHHH | soluble
MLRWITAGESHGRALVAVVEGMVAGVHVTSADIADQLARRRLGYGRGARMTFERDAVTVLSGIRHGSTLGGPIAIEIGNTEWPKWETVMAADPVDPAELADVARNAPLTRPRPGHADYAGMLKYGFDDARPVLERASARETAARVAAGTVARAFLRQALGVEVLSHVISIGASAPYEGPPPRAEDLPAIDASPVRAYDKAAEADMIAQIEAAKKDGDTLGGVVEAVALGLPVGLGSFTSGDHRLDSQLAAAVMGIQAIKGVEIGDGFQTARRRGSRAHDEMYPGPDGVVRSTNRAGGLEGGMTNGQPLRVRAAMKPISTVPRALATVDLATGDEAVAIHQRSDVCAVPAAGVVVETMVALVLARAALEKFGGDSLAETQRNIAAYQRSVADREAPAARVSGHHHHHH | soluble
MGSDKIHHHHHHMYLALIGDIINSKQILERETFQQSFQQLMTELSDVYGEELISPFTITAGDEFQALLKPSKKVFQIIDHIQLALKPVNVRFGLGTGNIITSINSNESIGADGPAYWHARSAINHIHDKNDYGTVQVAICLDDEDQNLELTLNSLISAGDFIKSKWTTNHFQMLEHLILQDNYQEQFQHQKLAQLENIEPSALTKRLKASGLKIYLRTRTQAADLLVKSCTQTKGGSYDF | not soluble
MNRFIIADATKCIGCRTCEVACAVSHHENQDCAALSPDEFISRIRVIKDHCWTTAVACHQCEDAPCANVCPVDAISREHGHIFVEQTRCIGCKSCMLACPFGAMEVVSSRKKARAIKCDLCWHRETGPACVEACPTKALQCMDVEKVQRHRLRQQPV | not soluble
MGSDKIHHHHHHMPNQAWSYQMLHLDLAWLNQLYSEFQEQGLDLHIPQHKPLIIKDEFLYDAFTEMNETLFDAQKLIFEKEQSLLHCLIHLLLPHFILEEIQKPQYLYKDFLNLIDVISSSEGFISLEELAQRVGLSRYAIIRLFKANVGLTPHAFQINLKINQAREQLKKGVPLAELAVNLGFSDQSHFHKAFKAHTGVTPRQFQLAAAQ | not soluble
MKKRIIPIFVPHKGCPHDCIFCNQKKITGVSTDVTSEDARNIIEECLETIDKDADVEIAFFGGSFTAIDIDIQKSLLSVAKEYVEKGLVKDIRMSTRPDCIDEDILSMLKEYKTSIIELGVQSLDEKVLLDSIRGHQSEIVYKSSKMIKNSGIKLGLQMMIGLPADTEEKCIFTAKKFVELKPDCVRVYPTLVVKDTGLEKLMEQNKYNPFTLEESVNIVKKVLVLFYVNNINVIRVGLQATDDIQIGKAVLAGPYHPAFRELVEADMIKDYLEFVILQNKNIKQMLVKSNKKNISKIIGNKKTNVKYMEEKFGVLLKTQESDLDINQLEIVLDGKSLISANMRDIHRKLYDIYDL | not soluble
MNPTDWIDTGAVPPRPLPATVDAALAYLSEALGHPVYAHWTLARVKRRYGSLSDAKAAQPTVLKLLLAHDGAVEYWERGRLRTVPADQAPGPAMVLARLLHTHRRRFRLAASSGNAAAVPAASEAAGLVAAPWLAAYSHAEHTWLARAGRFAQLHAATNTLGVANDAQALALFLRDRTGRSPHTLRAYGAELRRLMRWCGVHEVGPLSDLTRQQLLAYRHTLQHGEPGTENASPQLSEATCTRALAVVASLYGYWYDTGYLQANPAAGLSAGSRARAGFAPTRLIPPALLDACDAWLDASAVDASLPALRRRAIWALYRYAGARLAELVWSDEAALPRLEAEVPGHWTLYVCGKGRKVRAIPLPVPCVAVLRAYRHARGLPPEPPAHEALPVIHGHKGEALQSAGLYREVKAIFAAVADGLQARDPAQALLLRAASPHWLRHAYARTLVVDHQVPLPAAQALLGHASVQTTAAYARTDLTQLRAFVDATFADDAPLEHHHHHH | not soluble
EGAALTEKTDIFESGRNGKPNKDGIKSYRIPALLKTDKGTLIAGADERRLHSSDWGDIGMVIRRSEDNGKTWGDRVTITNLRDNPKASDPSIGSPVNIDMVLVQDPETKRIFSIYDMFPEGKGIFGMSSQKEEAYKKIDGKTYQILYREGEKGAYTIRENGTVYTPDGKATDYRVVVDPVKPAYSDKGDLYKGNQLLGNIYFTTNKTSPFRIAKDSYLWMSYSDDDGKTWSAPQDITPMVKADWMKFLGVGPGTGIVLRNGPHKGRILIPVYTTNNVSHLNGSQSSRIIYSDDHGKTWHAGEAVNDNRQVDGQKIHSSTMNNRRAQNTESTVVQLNNGDVKLFMRGLTGDLQVATSKDGGVTWEKDIKRYPQVKDVYVQMSAIHTMHEGKEYIILSNAGGPKRENGMVHLARVEENGELTWLKHNPIQKGEFAYNSLQELGNGEYGILYEHTEKGQNAYTLSFRKFNWDFLSKDLISPTEAKVKRTREMGKGVIGLEFDSEVLV | soluble
MGSDKIHHHHHHNQFSVKCWLRYIEFKQGAPKPRLNQLYERALKLLPCSYKLWYRYLKARRAQVKHRCVTDPAYEDVNNCHERAFVFMHKMPRLWLDYCQFLMDQGRVTHTRRTFDRALRALPITQHSRIWPLYLRFLRSHPLPETAVRGYRRFLKLSPESAEEYIEYLKSSDRLDEAAQRLATVVNDERFVSKAGKSNYQLWHELCDLISQNPDKVQSLNVDAIIRGGLTRFTDQLGKLWCSLADYYIRSGHFEKARDVYEEAIRTVMTVRDFTQVFDSYAQFEESMIAAKMETASELGREEEDDVDLELRLARFEQLISRRPLLLNSVLLRQNPHHVHEWHKRVALHQGRPREIINTYTEAVQTVDPFKATGKPHTLWVAFAKFYEDNGQLDDARVILEKATKVNFKQVDDLASVWCQCGELELRHENYDEALRLLRKATALPARRAEYFDGSEPVQNRVYKSLKVWSMLADLEESLGTFQSTKAVYDRILDLRIATPQIVINYAMFLEEHKYFEESFKAYERGISLFKWPNVSDIWSTYLTKFIARYGGRKLERARDLFEQALDGCPPKYAKTLYLLYAQLEEEWGLARHAMAVYERATRAVEPAQQYDMFNIYIKRAAEIYGVTHTRGIYQKAIEVLSDEHAREMCLRFADMECKLGEIDRARAIYSFCSQICDPRTTGAFWQTWKDFEVRHGNEDTIKEMLRIRRSVQATYNTQVNFMASQMLKVSGSATGTVSDLAPGQSGMDDMKLLEQRAEQLAAEAERDQPLRAQSKILFVRSDASREELAELAQQVNPEEIQLGEDEDEDEMDLEPNEVRLEQQSVPAAVFGSLKED | not soluble
MFVDRIVLSFRGAGLERANTCLRKGQRLRKACSHVFRPLCSSDLPVNLPTDLETKRVMKPPLAERESIWSYPRPPRVEPNTRHLRVVHNQVTIAETRRGYRVLEYSHPPSYYIPLDDIDLQYVMVSSKVRSTFCEFKGEATYYDVEVGWEVSEGAAWSYDFPTRAYRMLKDHIAFYPAKVDACWVDEYRVRPEPRSFYGGWVTPLVKGVYPEEDVEDDEDSSGGDGKDSATQ | soluble
MGSDKIHHHHHHMAKYLYGRRVKLVLLTPHESVTFDYKQTETHSMGIQFNVPFSDSSTPPTCTVTIMNLSAKHRKLFKKGYEVKLYAGYAEDGVGLLSAGVIRAISPFTSDGTNNTFSFTYREGQEYSKLLSSAEKANKKADEARKKKAKVIGKKAAAGLPKIKKHSALSFGKNTAASTIIRRIASDAGITLSKVYLAKPKKYKKGYAAHGKPITNIKAIAKACGSKVYYRRGSIVIDDLSKVKGHNEHILVTEHVKGRHGGTGLIQYPTTDSDSMAKHKTWTVTSLLRYQVSTGSVVTVENRFLKGTFRVKSGEHVCDDSAFTTAMEVYV | not soluble
MRLASMGEEDSTPGRRSKAYSRQGADVRPMKGGHGINLVGTLMAATERGANIVEGVVDFRPTDLRGSLRRGREANLIVFVVDTSGSMAARSRVRAVTGTITSMLNDAYQRRDKVAVIAVNGNKPTLVLNPTNSVEQAQQKLKDMPMGGRTPLAEGLLMAKDLMARELRKEPGRRAILMVMTDGQDTSDAGEAGIATAAETVVKSRLSGNVVIDCEGRLKVRKERAGVLAEMLGGVCVRLRDLNSEHIKMVINA | not soluble
MSLVMSMANKREPAPGWPIVSGEYVVGNPESCVGVVTLGSHGLEQACIDAGAAIAGPCHTENLGIEKVVANYISNPNIRFMILCGSEVQGHITGQCFKALWENGIGDDGGIIGAKGAIPFLENVNKEAVERFRRQIVEVVDLIDCEDIGKITQAIKECLSKDPGAIDEDPFIIELEGGKGGGEEEEGVIKPITPEMAIIESRMRLIGNEMCYNGLLAKWQAGYYNGKEGHHHHHH | not soluble
MSLGFIDAQREHFGVESICKALQVAPSGYWRRAARRSNPALLPARAKGDAELVPQIERVWTSNLQVYGYRKVWRQMLREGTAVARCTVERLMRLKGLQGARRGKKILTTVPDAKAPCPLDRVNRQFKADKPNQLWVSDFTYVSTWQGMVYVAFVVDVYARFIVGWRVSRSMRTDFVLDALEQALYARKPERDGALIHHSDRGLQYVSIRYSERLAEAGIEPSVGSKGDSYDNALAETINGLYKTELIHRRAPWKSKEAVELATLEWVSWFNHHRLMESLGYIPPAEAEANYHWQLAGQAMSVEGHHHHHH | not soluble
MERSQCGSRDRGVSGRPHLAPGLVVAAPPPPSPALPVPSGMQCARCRNHGVVSALKGHKRFCRWRDCACAKCTLIAERQRVMAAQVALRRQQAQEESEARGLQRLLCSGLSWPPGGRASGGGGRAENPQSTGGPAAGAALGLGALRQASGSATPAFEVFQQDYPEEKQEQKESKCESCQNGQEELISKSHQLYLGSSSRSNGVIGKQSIGSSISEYSNKPDSILSPHPGEQSGGEESPRSLSSSDLESGNESEWVKDLTATKASLPTVSSRPRDPLDILTKIFPNYRRSRLEGILRFCKGDVVQAIEQVLNGKEHKPDNRNLANSEELENTAFQRASSFSLAGIGFGTLGNKSAFSPLQTTSASYGGDSSLYGVNPRVGISPLRLAYSSAGRGLSGFMSPYLTPGLVPTLPFRPALDYAFSGMIRDSSYLSSKDSITCGRLYFRPNQDNP | soluble
